Experimental data taken from US20100092974A1, “METHODS FOR SCREENING FOR MODULATORS OF CCRL2” (The Board of Trustees of the Leland Stanford Junior …, priority 2008, published 2010).

Target: T1, huCCRL2 (Homo sapiens, UniProt O00421)
T1 construct: The coding regions of mCCRL2, huCCRL2, mCRTH2, and huCCR10 were amplified from genomic DNA; expressed in transfected cells
T1 sequence (O00421 1-344): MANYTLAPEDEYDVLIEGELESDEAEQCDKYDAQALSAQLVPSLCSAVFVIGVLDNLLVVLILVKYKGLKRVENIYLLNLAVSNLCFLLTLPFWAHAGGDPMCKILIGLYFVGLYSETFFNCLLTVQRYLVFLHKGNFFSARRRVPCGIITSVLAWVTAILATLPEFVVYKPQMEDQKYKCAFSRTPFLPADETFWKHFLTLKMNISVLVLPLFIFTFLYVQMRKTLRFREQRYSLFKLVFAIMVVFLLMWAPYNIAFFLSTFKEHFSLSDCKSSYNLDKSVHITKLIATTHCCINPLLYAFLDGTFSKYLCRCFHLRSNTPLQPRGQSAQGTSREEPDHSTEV
Experiment: receptor internalization assay, huCCRL2-HA L1.2
Type: cell-based
Settings: 100 nM chemerin, 15 min
Method: The cells were then washed with 200 μl PBS and stained with mouse anti-HA (Covance, Inc) or mIgG1 isotype control, followed by staining with secondary anti-mouse IgG1 PE, fixed, and analyzed by flow cytometry.

chemerin: protein ligand for signaling receptor CMKLR1; serum form human chemerin expressed in baculovirus-infected insect cells, His8-tag removed
ligand-induced receptor internalization: failed to internalize
